Data taken from patent US20230272055A1 (Incyte, published 2023).
Where a chain is given by its changes, count along the chain named. Numbers in names are those of the source.

T1: Human Type 1 mutCALR (human)
T1 chain: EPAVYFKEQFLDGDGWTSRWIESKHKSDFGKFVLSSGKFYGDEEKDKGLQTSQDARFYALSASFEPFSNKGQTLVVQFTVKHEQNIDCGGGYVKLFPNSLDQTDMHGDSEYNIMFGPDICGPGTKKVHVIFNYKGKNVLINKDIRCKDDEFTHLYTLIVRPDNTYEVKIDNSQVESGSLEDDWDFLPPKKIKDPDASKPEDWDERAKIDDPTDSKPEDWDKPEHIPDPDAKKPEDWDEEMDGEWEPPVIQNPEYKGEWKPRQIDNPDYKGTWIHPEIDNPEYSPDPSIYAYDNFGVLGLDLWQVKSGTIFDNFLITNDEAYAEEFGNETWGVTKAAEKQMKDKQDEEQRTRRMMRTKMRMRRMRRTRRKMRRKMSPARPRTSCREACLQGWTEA

B1: anti-mutCALR antibody clone 53 (antibody, human IgG1, lambda, V domains shown)
VH: QVQLVQSGAEVKKPGASVKVSCKVSGYTLTELSMHWVRQAPGKGLEWMGGFDPEDGETIYAQKFQGRVTMTEDTSTDTAYMELSSLRSEDTAVYYCATDIQGLAEFDYWGQGTLVTVSS
VL: QSALTQPRSVSGSPGQSVTISCTGTNTDVGAYIDVSWYQQHPGKAPKLIIYDVSKWPSGVPDRFSGSKSGNTASLTISGLQAEDEADYYCCSYAGNHSFSFGGGTKVTVLG
notes: human IgG1; group 13
B2: anti-mutCALR antibody clone 32 (antibody, human IgG1, lambda, V domains shown)
VH: QVQLVQSGAEVKKPGATVKISCKVSGYSFTDYFIHWVQQAPGKGLAWVGLVDPEDGETIYAEKFQGRVTITADTSTDTAYMELSSLRSEDTAVYYCATPGGILTDPDAFDIWGQGTMVTVSS
VL: QSALTQPASVSGSPGQSITISCTGTSSDVGGYNYVSWYQQHPGKAPKLMIYEVSNRPSGVSNRFSGSKSGNTASLTISGLQAEDEADYYCSSYTSSSTPYVFGTGTKVTVLG
B3: anti-mutCALR antibody clone 31 (antibody, human IgG1, lambda, V domains shown)
VH: B2 VH
VL: QSALTQPASVSGSPGQSVTISCTGTSSDVGGYNYVSWYQHHPGKAPKLMIYDVNKRPSGVPDRFSGSKSGNTASLTISGLQAEDEADYYCSSYIPSSTRWVFGGGTKLTVLG
B4: anti-mutCALR antibody clone 33 (antibody, human IgG1, lambda, V domains shown)
VH: B2 VH
VL: B3 VL with A8R, T23A, S26G, Y34H
B5: anti-mutCALR antibody clone 34 (antibody, human IgG1, lambda, V domains shown)
VH: B2 VH
VL: QSALTQPASVSGSPGQSITISCTGTSSDVGGYNYVSWYQQHPGKAPKLMIYEVSNRPSGVSNRFSGSKSGNTASLTISGLQAEDEADYYCSSYTSSSTYVFGTGTKVTVLG
B6: anti-mutCALR antibody clone 65 (antibody, human IgG1, lambda, N297A, V domains shown)
VH: EVQLVQSGAEVKKPGASVKVSCKVSGYTLTELSMQWVRQAPGKGLEWMGGFDPDDGETMYAEKFQGRLTVTEDTSTDTVYMELRSLTSEDTALYFCATSPGYDFFDYWGQGTLVTVSS
VL: SYVLTQPPSVSVAPGKTARITCTGTSSDVGGYNYVSWYQQKPGQAPVLVVYEVSNRPSGIPERFSGSNSGNTATLTISRVEAGDEADYYCQVWDSSNDLLIFGGGTKLTVLG
notes: human IgG1 N297A variant of clone 6
B7: anti-mutCALR antibody clone 74 (antibody, human IgG1, lambda, N297A, V domains shown)
VH: B6 VH with G56A, R84S, T87R, L93V
VL: B6 VL
notes: as for B6
B8: anti-mutCALR antibody clone 162 (antibody, human IgG1, lambda, N297A)
heavy: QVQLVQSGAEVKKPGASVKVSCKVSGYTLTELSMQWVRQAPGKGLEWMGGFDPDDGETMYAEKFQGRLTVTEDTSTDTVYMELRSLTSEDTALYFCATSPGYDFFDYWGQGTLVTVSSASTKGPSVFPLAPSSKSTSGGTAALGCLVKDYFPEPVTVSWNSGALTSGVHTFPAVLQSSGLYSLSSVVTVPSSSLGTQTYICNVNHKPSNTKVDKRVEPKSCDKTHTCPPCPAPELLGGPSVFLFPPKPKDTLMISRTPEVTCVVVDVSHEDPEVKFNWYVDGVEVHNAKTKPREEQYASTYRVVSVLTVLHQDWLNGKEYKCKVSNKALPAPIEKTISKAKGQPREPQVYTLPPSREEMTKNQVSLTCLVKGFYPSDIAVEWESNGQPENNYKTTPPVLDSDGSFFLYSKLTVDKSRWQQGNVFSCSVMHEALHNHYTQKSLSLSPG
light: SYVLTQPPSVSVAPGKTARITCGGDNIGSKSVHWYQQKPGQAPVLVVYDDSDRPSGIPERFSGSNSGNTATLTISRVEAGDEADYYCQVWDSSNDLLIFGGGTKLTVLGQPKAAPSVTLFPPSSEELQANKATLVCLISDFYPGAVTVAWKADSSPVKAGVETTTPSKQSNNKYAASSYLSLTPEQWKSHRSYSCQVTHEGSTVEKTVAPTECS
notes: human IgG1 N297A variant of clone 15

Key:
MBP protein = MBP protein (UniProt P0AEX9 27-392 = MBP); experiment: SPR (Biacore 8K), antibody captured on anti-human IgG (Fc), MBP injected
Experimental: (§1) Experiment 1: Recombinant MBP-mutCALR Type 1 fusion protein was custom made at Cepter (cepterbiopartners.com). Data for the interaction of antibodies with recombinant MBP-mutCALR Type 1 fusion protein were collected at 25° C. on a Biacore 8K instrument (Cytiva, Marlborough, Mass.), and all reagents were obtained from Cytiva unless otherwise specified. The experiments were conducted using Tris-buffered saline (pH 7.2), 0.005% Surfactant P20, 1 mM CaCl₂) as running buffer. To prepare the capture surfaces, anti-human IgG (Fc) antibodies (Product #29234600) was amine-coupled onto a CM4 chip (Product #BR100534) under standard conditions using an Amine Coupling Kit (Product #BR100050). […] The kinetics parameters were obtained by applying 1:1 binding model to fit the data from multiple-cycle injection experiments using Biacore Insight Evaluation software.

Human Type 1 mutCALR [1] = biological target: T1, Human Type 1 mutCALR; experiment: cell-based or functional assay
Human Type 1 mutCALR [2] = biological target: T1, Human Type 1 mutCALR; experiment: cell-based or functional assay
[3] = biological target: T2, Recombinant MBP-mutCALR Type 2 fusion protein (human); experiment: SPR, IgG captured, 1:1 fit, Exp. 3
T2 construct: custom made at Cepter
Experimental: as §1, with “Experiment 2:” for “Experiment 1:”, “recombinant mutCALR” for “recombinant MBP-mutCALR Type 1 fusion”
Recombinant MBP-mutCALR Type 2 fusion protein was custom made at Cepter (cepterbiopartners.com). Data for the interaction of antibodies with recombinant MBP-mutCALR Type 2 fusion protein were collected as described in Experiment 2. The chip used was a Biacore Series S Sensor Chip CM4 with anti-huFc immobilized onto the chip surface.

[4] = biological target: T3, Recombinant MBP-mutCALR Type 1 fusion protein (human); experiment: SPR, IgG captured, 1:1 fit, Exp. 2
T3 construct: custom made at Cepter; also called recombinant mutCALR protein
Method in brief: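 Antibodies captured via amine-coupled anti-human IgG (Fc) on a CM4 chip; recombinant MBP-mutCALR Type 1 fusion protein as analyte. Run at 25 °C in Tris-buffered saline pH 7.2, 0.005% P20, 1 mM CaCl₂. Multiple-cycle kinetics fitted to a 1:1 binding model.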

Binder | IC50 of inhibition of cell proliferation (Ba/F3 cells with MPL and mutCALR Type 1) (Human Type 1 mutCALR [2]) [µg/mL] | Kd [3] [nM] | koff [3] [s⁻¹] | kon [3] [M⁻¹ s⁻¹] | other results
B1 |  |  |  |  | binding result (MBP protein): no binding (tested: 250 nM)
B2 | 0.225 |  |  |  | Log IC50 of inhibition of cell proliferation, antibody + ruxolitinib (Ba/F3-TPOR/mutCALR type 1 cells); extrapolated from fitted curve (Human Type 1 mutCALR [1]): -0.586 Log IC50 (µg/mL); Log IC50 of inhibition of cell proliferation, antibody alone (Ba/F3-TPOR/mutCALR type 1 cells); extrapolated from fitted curve (Human Type 1 mutCALR [1]): 0.18 Log IC50 (µg/mL)
B3 | 13 |  |  |  | 
B4 | 16.9 |  |  |  | 
B5 | 0.0593 |  |  |  | 
B6 |  | 6.35 | 0.00424 | 668000 | Kd [4]: 0.502 nM; koff [4]: 0.00231 s⁻¹; kon [4]: 4.6e+06 M⁻¹ s⁻¹
B7 |  | 6.78 | 0.00579 | 854000 | Kd [4]: 1.19 nM; koff [4]: 0.00153 s⁻¹; kon [4]: 1.29e+06 M⁻¹ s⁻¹
B8 |  | 11.2 | 0.00682 | 607000 | 
